The values below come from the RNAGym collection of RNA variant scans (doi:10.1093/nar/gkz1192).

B1: CPEB3 Ribozyme (parent)
chain: UAACAGGGGGCCACAGCAGAAGCGUUCACGUCGCAGCCCCUGUCAGAUUCUGGUGAAUCUGCGAAUUCUGCUGUAUAUCUC

The variants in this data set derive from B1. Briefly: self-cleavage, relative activity (ratio to wild type); higher = more cleavage; in vitro, sequencing. The procedure, abridged: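 Barcoded CPEB3 ribozyme mutants, produced by rounds of error-prone PCR, self-cleaved while being transcribed with T7 RNA polymerase for 5 hours at 37°C and during a subsequent 15 min DNase I step before EDTA was added. Sequencing of template-switched cDNA on Illumina gave cleaved and total reads, and DNA sequencing assigned barcodes to variants. Each variant's relative activity is its cleaved/total read fraction divided by the unmutated ribozyme's fraction, averaged across three batches. A variant needed a minimum of 5 reads.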
Consider UAACAGGGGGCCACAGCAGAGGCGUUCACGUCGCAGCCCCUGUCAGAUUCUGGUGAAUCUGCGAAUUCUGCUGCAUAUCUC [A21G U74C], for which the self-cleavage is 0.96.

As to UAACAGGGGGCCACAGCAGAAGCGUUCACAUCGGAGCCCCUGUCAGAUUCUGGUGAAUCUGCGAAUUCUGCUGUAUAUCUC [G30A C34G], the self-cleavage is 0.38.

For the variant UAACUGGGGGCCACAGCAGAAGCGUUCACGUCACAGCCCCUGUCAGAUUCUGGUGAAUCUGCGAAUUCUGCUGUAUAUCUC [A5U G33A], the self-cleavage was 0.27.

As to UAACAGGGGGCCACAGCAGAAGCGUUCACGUCGCUGUCCCUGUCAGAUUCUGGUGAAUCUGCGAAUUCUGCUGUAUAUCUC [A35U C37U], the self-cleavage turned out to be 0.28.

UAGCAGGGGGCCACAGCAGAAGCGUUCACGUCGCAGCCCCUGUCAGAUUCUGGUGAAUCUGCGAAUUCUGCUGCAUAUCUC [A3G U74C]: the self-cleavage came to 1.16.

For UAACAGGGGGCCACAGCAGAAGCGUUCACGUCGCAGUCCCUGUCAGAUUCUGGUGAAUCUGCGAAUUCUGUUGUAUAUCUC [C37U C71U], the self-cleavage was found to be 0.38.

For the variant UAACAGGGGGCCACAGAUGAAGCGUUCACGUCGCAGCCCCUGUCAGAUUCUGGUGAAUCUGCGAAUUCUGCUGUAUAUCUC [C17A A18U], the self-cleavage came out at 0.11.

As to UAACAGGGGGCCACAGCAGAAGCGUUCACGUCGCAGCCCCUGUCAGAUUCUGGUGAAUCUGCGAAUUAAGCUGUAUAUCUC [C68A U69A], the self-cleavage worked out at 0.25.

As for UAACAGGGGGCCACGGCAGAAGCGUUCACGUCGCAGCCCCUGUCCGAUUCUGGUGAAUCUGCGAAUUCUGCUGUAUAUCUC [A15G A45C], the self-cleavage came out at 0.31.

For the variant UAACAGGGGGCCAAAGCAGAAGCGUUCACGUAGCAGCCCCUGUCAGAUUCUGGUGAAUCUGCGAAUUCUGCUGUAUAUCUC [C14A C32A], the self-cleavage amounted to 0.2.

Consider UAACAGGGGGCCACAGCAGAAGCGUUCACGUCGCAGCCCCUGUCAGAUUCUGGUGAAUCUGCGAACUCUGAUGUAUAUCUC [U66C C71A], for which the self-cleavage was determined as 0.25.

As for UAACAGGGGGCCACAGCAGAACCGUUCACGUCGCAGCCCCUGUCAGAUUCUCGUGAAUCUGCGAAUUCUGCUGUAUAUCUC [G22C G52C], the self-cleavage is 0.2.

With UAACAGGGGGGCACAGCAGAAGCGUUCACGUCGCGGCCCCUGUCAGAUUCUGGUGAAUCUGCGAAUUCUGCUGUAUAUCUC [C11G A35G], the self-cleavage came out at 0.56.

As to UAACAGGGGGCCACAGCAGAAGCGUUCACGUCGCAGCCCCUGUCAGAUUCUGGUGAUUCUGCGAAUUCUGCUGUAAAUCUC [A57U U76A], the self-cleavage stood at 1.01.

Regarding UAACAGGGGGCCACAGCAGAAGCGUUCACGUCGCAGCCCCUGUCAGAUUAUGGUGGAUCUGCGAAUUCUGCUGUAUAUCUC [C50A A56G], the self-cleavage stood at 0.43.

Regarding UAACAGGGGGCCACAGCAGAAGCGUUCACGUCGCAGCCCCUGUCAGAUUCUGGUGAAUCCGCGAAUUCUCCUGUAUAUCUC [U60C G70C], the self-cleavage turned out to be 0.27.

As to UAACAGGGGGCCACAGCAGAAGCGUUCACGUCGCAGCCCCUGCCAGAUUCUGGUGAAUCUGCGAAUUCGGCUGUAUAUCUC [U43C U69G], the self-cleavage stood at 0.43.

As to AAACAGGGGGCCACAGCAGAAGCAUUCACGUCGCAGCCCCUGUCAGAUUCUGGUGAAUCUGCGAAUUCUGCUGUAUAUCUC [U1A G24A], the self-cleavage came to 0.25.

UAACAGGGGGCCACAGCAGAAGCGUUCACGUCGCAGCCCCUGUCAGAUUCUGGUGAAUCUGCGAAUUCUGCUGUAUCUCAC [A77C U80A]: the self-cleavage is 1.05.

For the variant UAACAGGGGGCCACAGCAGAAGCGUUCUCGUCGCAGCCCCUGUCAGAUUCUGGUAAAUCUGCGAAUUCUGCUGUAUAUCUC [A28U G55A], the self-cleavage came out at 0.59.

As for UAACAGGGGGCCACAGCAGAAGCGAUCACGUCGCAGCCCCUGUCAGAUUCUGGUGGAUCUGCGAAUUCUGCUGUAUAUCUC [U25A A56G], the self-cleavage was determined as 0.27.

UAACAGGGGGCCACAGCAGAAGCGUUCACGUCGCAGCCCCUGUCAGAUUCUGGUAAGUCUGCGAAUUCUGCUGUAUAUCUC [G55A A57G]: the self-cleavage was determined as 0.46.

With CAACAGGGGGCCACAGCAGAAGCGUUCACGUCGCAGCCCCUGUCAGAUUCUGGUGAAUCUGCGAAUUCUUCUGUAUAUCUC [U1C G70U], the self-cleavage was determined as 0.32.

Take UAACAGGGGGCCACAGCAGAAGCGUUUACGUCGCAGCCCCUGUCAGAUUCUGGUGAAUCUGCGAAUCCUGCUGUAUAUCUC [C27U U67C]: the self-cleavage was found to be 0.16.

For UAACAGGGGGCUACUGCAGAAGCGUUCACGUCGCAGCCCCUGUCAGAUUCUGGUGAAUCUGCGAAUUCUGCUGUAUAUCUC [C12U A15U], the self-cleavage amounted to 1.23.

With UAACAGGGGGCCACAGCAGAAGCGUUCACGUCGCAGCCCCUGUCAGAUCCUGGUGAAUCUGCGAAUUAUGCUGUAUAUCUC [U49C C68A], the self-cleavage turned out to be 0.15.

With UAACAGGGGGCCACAGCAGAAGCGUUCACGUCGCAGCCCCUGUCAGAAUCUGGUGUAUCUGCGAAUUCUGCUGUAUAUCUC [U48A A56U], the self-cleavage stood at 0.31.

With UUACAGGGGGCCACAGUAGAAGCGUUCACGUCGCAGCCCCUGUCAGAUUCUGGUGAAUCUGCGAAUUCUGCUGUAUAUCUC [A2U C17U], the self-cleavage was determined as 0.31.

With UAACAGGGGGCCACAGCAGAAGCGUUCACGUCGCGGCCCCUGUCAGAUUCUGGUGAAUCUGCGAAUUCUGCUGGAUAUCUC [A35G U74G], the self-cleavage is 1.27.

Consider UAGCAGGGGGCCACAGCAGAAGCGUUCACGUCGCAGCCCCUGUCAGAUUCUGGUGAAUCUACGAAUUCUGCUGUAUAUCUC [A3G G61A], for which the self-cleavage amounted to 0.53.

In the case of UAACAGGGGGCCUCAGCAGAAGCGUUCACGUCGCAGCCCCUGUCAGAAUCUGGUGAAUCUGCGAAUUCUGCUGUAUAUCUC [A13U U48A], the self-cleavage turned out to be 0.56.

Consider UAACAGGGGGCCGCAGCAGAAGCGUUCACGUCGCAGACCCUGUCAGAUUCUGGUGAAUCUGCGAAUUCUGCUGUAUAUCUC [A13G C37A], for which the self-cleavage is 0.18.

In the case of UAACUGGGGGCCACAGCAGAAGCGUUCACCUCGCAGCCCCUGUCAGAUUCUGGUGAAUCUGCGAAUUCUGCUGUAUAUCUC [A5U G30C], the self-cleavage was 0.4.

With UGACAGGGGGCCACAGCAGAAGCGUUCACGUCGCAGCCCCUGUCAGAUACUGGUGAAUCUGCGAAUUCUGCUGUAUAUCUC [A2G U49A], the self-cleavage amounted to 0.42.
